Experimental findings from patent US20200002439A1 are described below.

Experiment [1] has as its target recombinant human Ang2 (human) (UniProt O15123). The experiment can be described thus: blocking ELISA: Ang2 coated on the plate, binding of recombinant human Tie2 is blocked.
The target of experiment [2] is His tagged human Angiopoietin-2 (human) (UniProt O15123). The experiment in a line: bio-layer interferometry, rhAng2-His.
Experiment [3] addresses human TGFβ1 (human) (UniProt P01137).

Sequence of His tagged human Angiopoietin-2 (human) (O15123 19-496 limits assumed): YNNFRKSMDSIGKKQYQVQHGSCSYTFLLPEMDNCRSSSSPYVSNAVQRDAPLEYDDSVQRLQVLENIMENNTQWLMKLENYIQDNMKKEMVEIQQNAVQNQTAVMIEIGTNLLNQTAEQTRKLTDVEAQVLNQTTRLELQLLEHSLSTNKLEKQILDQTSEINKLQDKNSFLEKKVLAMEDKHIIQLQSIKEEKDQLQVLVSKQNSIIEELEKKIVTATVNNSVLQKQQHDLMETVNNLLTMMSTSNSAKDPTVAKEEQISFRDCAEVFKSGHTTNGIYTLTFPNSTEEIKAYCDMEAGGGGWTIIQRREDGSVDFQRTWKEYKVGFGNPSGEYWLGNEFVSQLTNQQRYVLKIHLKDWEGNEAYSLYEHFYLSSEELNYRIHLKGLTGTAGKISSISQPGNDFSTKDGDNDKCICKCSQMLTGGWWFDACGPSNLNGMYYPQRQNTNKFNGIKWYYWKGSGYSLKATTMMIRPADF
Sequence of recombinant human Ang2 (human) (O15123 19-496 limits assumed): as above
Sequence of human TGFβ1 (human) (P01137 279-390 limits assumed): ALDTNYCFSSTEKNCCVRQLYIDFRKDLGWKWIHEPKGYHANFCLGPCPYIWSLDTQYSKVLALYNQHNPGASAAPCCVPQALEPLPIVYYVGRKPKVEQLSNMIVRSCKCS

For trebananib (Fc fusion), the IC50 in experiment [1] was found to be 0.5 nM. In experiment [2], this substance came in with a dissociation constant Kd of 1.23 nM, a koff of 0.000146 s⁻¹ and a kon of 119000 M⁻¹ s⁻¹.
For bevacizumab-trebananib, the IC50 in experiment [1] was 0.57 nM.
On to “TGFβ1 RII-Fc (from UniProt P37173 24-159) (Fc fusion)”, for which the IC50; luciferase signal of TGFβ/SMAD SBE Reporter-HEK293 cells stimulated with human TGFβ1 in experiment [3] came out at 2.02 nM.
